The target in the experiment is cynomolgus monkey CD19 on peripheral blood B cells (cynomolgus monkey (Macaca fascicularis)). Kind of experiment: FACS, cynomolgus PBMC, CD20+ B cells. (In flow cytometry, cells or beads pass a laser one at a time.)

The values below come from US20250042994A1.

B1: F3.23.10 (antibody, human IgG1, V domains shown)
VH: EFQLQQSGPELVKPGASVKISCKASDYSFTDYNMNWVKQSNGASLEWIGIINPNFGSTSYNQKFKGKATLTVDQSSSTAFMQLNSLTSEDSAVYYCARSEYYGSSGFAYWGQGTLVTVSA
VL: DVVVTQTPLSLPVSFGDQVSISCRSSQSLVNSYGNTYLSWYLHKPGQSPQLLIYGISNRFSGVPDRFSGSGSGTDFTLKITTIKPEDLGMYYCLQGTHQPWTFGGGTKLEIK
As for B1, the Proportion of chimeric antibody positive cells to B cells (%) at 1 nM was found to be 2%, the Proportion of chimeric antibody positive cells to B cells (%) at 10 nM is 1% and the Proportion of chimeric antibody positive cells to B cells (%) at 100 nM amounted to 12%.

B2: F4.180.1 (antibody, human IgG1, V domains shown)
VH: EVQLQQSAPELVKPGASVKMSCKTSGYTFTENIIHWVKQTHGKSLEWIGGINPDNGGTSYHQKFKGRTTLTIDKSSSTAYMELRSLTSDDSAVFFCARQAPLYWYFDIWGAGTTVTVSS
VL: DIVLTQSPASLAVSLGQRATISCRASESVDSYGNSLMHWFQQKPGQPPRLLIYRASNLESGIPARFSGSGSRTDFTLTITPVEADDVATYYCQQSNEDPWTFGGGTKLEIK
On to B2, for which the Proportion of chimeric antibody positive cells to B cells (%) at 1 nM worked out at 2%, the Proportion of chimeric antibody positive cells to B cells (%) at 10 nM was found to be 3% and the Proportion of chimeric antibody positive cells to B cells (%) at 100 nM was 9%.
